Reference: patent US20090275637, “PROTEIN TYROSINE PHOSPHATASE INHIBITORS” (published 2009)

Legend:
[1] = biological target: T1, PTP1B catalytic domain (321 residues), GST fusion (Homo sapiens, UniProt P18031 P18031:1-321); assay: filter; 20 mM HEPES pH 7.2, 5 mM MgCl2, 125 mM NaCl, room temperature; conditions: tags: GST; hairpin
T1 sequence: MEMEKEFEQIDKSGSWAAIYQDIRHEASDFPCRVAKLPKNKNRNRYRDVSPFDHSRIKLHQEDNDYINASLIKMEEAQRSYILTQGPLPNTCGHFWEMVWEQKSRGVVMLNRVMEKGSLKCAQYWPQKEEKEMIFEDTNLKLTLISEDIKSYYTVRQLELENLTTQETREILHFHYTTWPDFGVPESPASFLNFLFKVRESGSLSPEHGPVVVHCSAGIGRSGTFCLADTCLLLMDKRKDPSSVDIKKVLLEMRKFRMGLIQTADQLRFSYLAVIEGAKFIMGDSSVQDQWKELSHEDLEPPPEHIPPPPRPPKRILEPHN
Protocol: Binding assays were carried out in triplicate at 12 different PTP1B concentrations using a Schleicher & Schuell Milliblot™ apparatus with 0.45 μm BioRad TransBlot® nitrocellulose layered on top of a Hybond™-N+nylon transfer membrane. Radiolabelled RNA at 100-500 pM was heated to 75° C. for 3 minutes then cooled to room temperature before mixing with a 2× serial dilution of the target and also a no-target control. 150 μL of the mixtures at each of the 12 enzyme concentrations were pre-incubated at room temperature for 60 minutes before applying to the pre-washed membrane to allow the RNA complex to reach equilibrium (Waley, S. G. (1993) The Biochemical journal 294 Pt 1, 195-200). Following addition of 40 μL per well of each mixture to three separate wells of the Milliblot™ apparatus, the filter was washed 3 times. The dilutions and all washes used the binding buffer described above. Activity of the filters was measured using a FujiFilm BAS-1800II phosphorimager and relative density used to estimate the fraction of radiolabelled RNA retained on the nitrocellulose and nylon membranes.
A binding assay with a concentration of 2 nM of the radiolabelled C13M21 nucleic acid ligand against PTP1B-GST was performed with the protein concentration ranging from 1 nM to 512 nM in a 2:1 serial dilution. […]

[2] = biological target: T2, PTP1B (Homo sapiens, UniProt P18031 P18031:1-321); assay: inhibition; 125 mM NaCl, DiFMUP, competitive; 20 nM from Lineweaver-Burk fit; conditions: tags: N-terminal His6; R&D Systems 1366-PT-050; hairpin
T2 sequence: T1 sequence
Protocol: In parallel with a no-RNA control, the activity in the presence of 30 nM C13M21 was measured in duplicate for varying concentrations of DiFMUP. […] Fitting of the data in the presence of C13M21 gave a Kₘ*of 63 μM, which equates to a Kᵢ of 20 nM. The fitted Vₘₐₓ in the presence of the inhibitor was equal to or slightly greater than the no-RNA Vₘₐₓ, indicating the presence of competitive inhibition.
(§1) To further refine the estimate of Kᵢ, an assay was run at a fixed DiFMUP concentration of 20 μM with the C13M21 and the full-length C13 nucleic acid ligand, each premixed with the PTP1B at […] in the 125 mM NaCl buffer. […] Nonlinear fitting gives an estimate of the IC₅₀ of […]. Based on a Kₘ of 25 μM, and assuming competitive inhibition, this gives a Kᵢ of 45 nM for C13M21 and a Kᵢ of 7 nM for the full-length nucleic acid ligand at 125 mM NaCl concentration.

[3] = biological target: T2, PTP1B; assay: inhibition; 20 mM NaCl, 5 uM DiFMUP; p151 quotes about 600 pM; conditions: tags: N-terminal His6; R&D Systems 1366-PT-050; hairpin
[4] = biological target: T2, PTP1B; assay: inhibition; parent about 35 nM; conditions: tags: N-terminal His6; R&D Systems 1366-PT-050
Protocol: Several single-base modifications of the M21 nucleic acid ligand were also tested to determine whether the changes would affect the level of inhibition. With reference to the postulated secondary structure shown in FIG. 9, the sequence at each position on the unpaired regions was modified at positions 31 through 37 and positions 42 through 46. […] From this, it appears that the other nucleotides are either critical in the contact with the PTP1B molecule or in shaping the nucleic acid ligand into a conformation that binds with the PTP1B.

[5] = biological target: T2, PTP1B; assay: inhibition; 125 mM NaCl, DiFMUP; conditions: tags: N-terminal His6; R&D Systems 1366-PT-050; hairpin
Protocol: as §1

[6] = biological target: T2, PTP1B; assay: inhibition; 20 mM NaCl, 5 uM DiFMUP; conditions: tags: N-terminal His6; R&D Systems 1366-PT-050; hairpin

GGGAAUUCUGUGAUCAAUUUGGCAAUCCGCCACACGAGUUC (ssRNA) [C13M21]
Kd [1]: 28 nM
Ki [2]: 45 nM
Ki [3]: 0.3 nM

GGGAAUUCUGUGAUUAAUUUGGCAAUCCGCCACACUAGUUC (ssRNA, [15,36]) [C9 shortened to M21 range]
Ki [4]: ~250 nM

GGGAAUUCUGUGAUCAAUUUGGCAAUCCGCCACACUAGUUC (ssRNA, [36]) [C13M21 G54U]
Ki [4]: 48 nM

B1: C13 (ssRNA)
RNA: GGGAAUGGAUCCACAUCUACGAAUUCUGUGAUCAAUUUGGCAAUCCGCCACACGAGUUCACUGCAGACUUGACGAAGCUU
Ki [5]: 7 nM
Ki [6]: < 0.1 nM
